# Starred links: 1 amine or outer side, 2 acyl side, 3 side chain; linkers in the order of their positions; H or OH if unused. Non-standard residues stand in square brackets, D forms with d. Groups on a side chain read outwards from the residue. No end group written: not given here. *: point of attachment. C18 diacid = O=C(O)CCCCCCCCCCCCCCCCC(=O)*; γGlu = O=C(O)[C@H](CCC(=O)[*:2])N[*:1]; εLys = N[C@@H](CCCCN[*:1])C(=O)[*:2]; Aib = CC(C)(N)C(=O)O
# T1: human neuropeptide Y2 receptor (human, UniProt P49146 1-381)
# T1 sequence (looked up): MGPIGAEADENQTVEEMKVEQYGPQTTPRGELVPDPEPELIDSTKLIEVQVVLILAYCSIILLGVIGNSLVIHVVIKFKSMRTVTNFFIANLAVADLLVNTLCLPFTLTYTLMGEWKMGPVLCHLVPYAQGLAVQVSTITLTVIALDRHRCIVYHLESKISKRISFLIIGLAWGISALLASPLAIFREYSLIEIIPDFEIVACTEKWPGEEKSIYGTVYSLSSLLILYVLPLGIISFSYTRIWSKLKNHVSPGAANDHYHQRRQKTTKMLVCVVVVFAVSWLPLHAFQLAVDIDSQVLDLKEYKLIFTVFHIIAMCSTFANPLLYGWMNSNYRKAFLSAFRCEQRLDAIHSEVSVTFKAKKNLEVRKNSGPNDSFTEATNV
# T2: human GIP receptor (human, UniProt P48546 22-466)
# T2 sequence (looked up): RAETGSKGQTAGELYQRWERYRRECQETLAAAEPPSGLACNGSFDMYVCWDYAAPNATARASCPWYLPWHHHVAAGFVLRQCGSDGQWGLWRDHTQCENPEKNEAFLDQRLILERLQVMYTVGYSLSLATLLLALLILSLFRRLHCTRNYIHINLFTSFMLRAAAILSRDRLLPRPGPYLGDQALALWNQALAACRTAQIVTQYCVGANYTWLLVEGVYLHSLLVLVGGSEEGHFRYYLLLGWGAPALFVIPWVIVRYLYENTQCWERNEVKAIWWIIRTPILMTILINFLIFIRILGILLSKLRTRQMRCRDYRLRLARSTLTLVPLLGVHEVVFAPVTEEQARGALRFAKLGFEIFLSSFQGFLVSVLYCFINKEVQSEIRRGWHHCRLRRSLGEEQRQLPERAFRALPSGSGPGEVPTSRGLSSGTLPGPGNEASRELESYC
# T3: human neuropeptide Y2 (NPY2) receptor (human, UniProt P49146 1-381)
# T3 sequence (looked up): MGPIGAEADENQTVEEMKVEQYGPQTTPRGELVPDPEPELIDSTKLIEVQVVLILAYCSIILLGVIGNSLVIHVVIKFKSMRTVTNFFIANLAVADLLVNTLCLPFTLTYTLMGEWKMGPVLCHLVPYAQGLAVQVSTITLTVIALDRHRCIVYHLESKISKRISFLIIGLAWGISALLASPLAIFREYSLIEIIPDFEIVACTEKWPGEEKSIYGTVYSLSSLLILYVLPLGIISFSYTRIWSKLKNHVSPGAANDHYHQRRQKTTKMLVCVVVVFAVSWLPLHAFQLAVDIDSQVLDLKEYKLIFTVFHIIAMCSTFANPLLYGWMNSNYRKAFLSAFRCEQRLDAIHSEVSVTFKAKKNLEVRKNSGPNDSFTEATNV
# T4: human GIP receptor (human, UniProt P48546 22-466)
# T4 sequence (looked up): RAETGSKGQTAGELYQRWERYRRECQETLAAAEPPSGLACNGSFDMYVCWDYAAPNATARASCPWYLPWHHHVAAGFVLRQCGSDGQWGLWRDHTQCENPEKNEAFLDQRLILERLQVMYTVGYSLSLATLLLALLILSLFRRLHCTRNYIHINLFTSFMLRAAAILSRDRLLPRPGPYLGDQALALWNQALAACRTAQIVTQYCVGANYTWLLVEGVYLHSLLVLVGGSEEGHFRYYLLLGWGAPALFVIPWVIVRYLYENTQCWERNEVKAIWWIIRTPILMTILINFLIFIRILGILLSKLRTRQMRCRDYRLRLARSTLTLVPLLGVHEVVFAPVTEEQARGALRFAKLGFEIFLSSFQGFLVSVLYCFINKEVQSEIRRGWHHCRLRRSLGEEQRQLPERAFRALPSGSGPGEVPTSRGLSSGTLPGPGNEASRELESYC
# B1: Compound 259 (peptide)
# peptide: YXEGTFTSDYSIXLEKQAQXAFVEWLIKGGPSSGASLRHYYNWLTRQRY
# modifications: Aib at 2, 13, 20; K28 side chain acylated with C18DA-gGlu-gGlu-gGlu-gGlu-gGlu-gGlu-eLys; C-terminal amide (NH2)
# B2: Compound 84 (peptide)
# peptide: YXEGTFTSDYSIXLEKQAQXAFVEWLIKGGPSSGQSLRHYYNWLTRQRY
# modifications: Aib at 2, 13, 20; K28 side chain: C20DA-gGlu-gGlu-gGlu-gGlu-gGlu-gGlu-eLys; C-terminal NH2
# B3: Compound 11 (peptide)
# peptide: YXEGTFTSDYSIXLEKQAQXAFVQWLIKGGPESPASLRHYYNWLTRQRY
# modifications: Aib at 2, 13, 20; K28 side chain: C20DA-gGlu-gGlu-gGlu-gGlu-gGlu; C-terminal NH2
# B4: Compound 87 (peptide)
# peptide: YXDGTFTSDYSIXLEKQAQXAFVEWLIKGGPSSGASLRHYYNWLTRQRY
# modifications: Aib at 2, 13, 20; K28 side chain: C20DA-gGlu-gGlu-gGlu-gGlu-gGlu-gGlu-eLys; C-terminal NH2
# B5: Compound 16 (peptide)
# peptide: YXEGTFTSDYSIXLEXEAQXKFVEWLIKGGPSSGASLRHYYNWLTRQRY
# modifications: Aib at 2, 13, 16, 20; K28 side chain: C20DA-gGlu-gGlu-gGlu-gGlu-gGlu-gGlu-eLys; C-terminal NH2
# B6: Compound 17 (peptide)
# peptide: YXEGTFTSDYSIXLEKQAQXAFVEWLIKGGPSSGASLRHYLNLXTRQRY
# modifications: Aib at 2, 13, 20, 44; K28 side chain: C20DA-gGlu-gGlu-gGlu-gGlu-gGlu-gGlu-eLys; C-terminal NH2
# B7: Compound 15 (peptide)
# peptide: YXEGTFTSDYSIXLEKQAQXAFVQWLIKGGPSSYVSLRHYYNWLTRQRY
# modifications: Aib at 2, 13, 20; K28 side chain: C20DA-gGlu-gGlu-gGlu-gGlu-gGlu-gGlu-eLys; C-terminal NH2
# B8: Compound 260 (peptide)
# peptide: YXEGTFTSDYSIXLEKQAQXAFVEWLIKGGPSSGASLRHYYNWLTRQRY
# modifications: Aib at 2, 13, 20; K28 side chain acylated with C18DA-gGlu-gGlu-gGlu-gGlu-gGlu-AHX; C-terminal amide (NH2)
# B9: Compound 86 (peptide)
# peptide: YXEGTFTSDYSIXLEKQAQXAFVEWLIKGGPSSGASLRHYLNWLTRQRY
# modifications: Aib at 2, 13, 20; K28 side chain: C20DA-gGlu-gGlu-gGlu-gGlu-gGlu-gGlu-eLys; C-terminal NH2
# B10: Compound 10 (peptide)
# peptide: YXEGTFTSDYSIXLEKQAQXAFVEWLIKGGPSSPESXRHYYNWLTRQRY
# modifications: Aib at 2, 13, 20, 37; K28 side chain: C20DA-gGlu-gGlu-gGlu-gGlu-gGlu-gGlu-eK; C-terminal NH2
# How the values were obtained:
# Assay in all cases: cell-based or functional assay
# [1] = target: human GLP-1 receptor (human, UniProt P43220 24-463)
# [2] = target: T1, human neuropeptide Y2 receptor
# [3] = target: T2, human GIP receptor
# [4] = target: T3, human neuropeptide Y2 (NPY2) receptor
# [5] = target: human GLP-1 receptor (human, UniProt P43220 24-463); remark: listed apart in the source
# [6] = target: T4, human GIP receptor; remark: listed apart in the source
Binder,EC50 hGLP1R 0.5% hP (CreLuc) [1] [nM],EC50 hGLP1R 100% hP (CreLuc) [1] [nM],EC50 hNPY2R 0.5% hP (CreLuc) [2] [nM],EC50 hNPY2R 100% hP (CreLuc) [2] [nM],EC50 hGIPR 0.5% hP (CreLuc) [3] [nM],EC50 hGIPR 100% hP (CreLuc) [3] [nM],"EC50, CreLuc assay, 0.5% hP [4] [nM]","EC50, CreLuc assay, 100% hP [4] [nM]","EC50, CreLuc assay, 0.5% hP [5] [nM]","EC50, CreLuc assay, 100% hP [5] [nM]","EC50, CreLuc assay, 0.5% hP [6] [nM]","EC50, CreLuc assay, 100% hP [6] [nM]"
Y[Aib]EGTFTSDYSI[Aib]LEKQAQ[Aib]AFVEWLIK([εLys-γGlu-γGlu-γGlu-γGlu-γGlu-C18 diacid])GGPSEPASLRHYYNWLTRQRY-NH2 (also: TFA salt) [Compound 263],0.32,5.21,15.8,83.2,0.12,1.5,–,–,–,–,–,–
B1,0.09,2.55,10.7,29.3,0.22,0.91,–,–,–,–,–,–
B2,–,–,–,–,–,–,8.31,35.2,0.13,2.63,0.23,1.43
B3,–,–,–,–,–,–,10.3,51.5,0.11,6.69,0.17,2.54
B4,–,–,–,–,–,–,20.7,73.4,0.08,2,0.58,5.65
B5,–,–,–,–,–,–,28.8,197,1.48,30.3,0.66,4.53
B6,–,–,–,–,–,–,> 100,450,0.14,2.28,0.43,2.23
B7,–,–,–,–,–,–,6.01,15.4,0.16,4.11,0.32,2.43
B8,0.13,2.78,26.4,69.6,0.31,2.53,–,–,–,–,–,–
B9,–,–,–,–,–,–,23.7,53.1,0.25,2.47,0.48,1.61
B10,–,–,–,–,–,–,18.2,42.2,0.11,2.59,0.07,1.25

# Reference: patent publication US20240247080A1, “GLP1/GIP/NPY2 RECEPTOR TRIPLE AGONISTS” (Boehringer Ingelheim International GmbH, priority 2022, published 2024)
